In the supplement of paper PMC10201428:
± gives the standard deviation of the averaged measurements.

Tests used:
[1] = test system: VchCAST RNA-guided transposition machinery (E. coli BL21(DE3) host, lacZ target); experiment: relative integration efficiency (T-RL orientation) vs wild-type transposon end (log2 (normalized fold change)); transposon end mutated: right end (5 bp flank + 75 bp right end); higher = more efficient transposition
Procedure, shortened: (§1)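 Co-transformation of E. coli BL21(DE3) combined a pUC57 mini-transposon donor, holding barcoded pools of 1549 left-end or 1849 right-end variants, with a T7-driven plasmid encoding a CRISPR array, tniQ-cas8-cas7-cas6 and tnsA-tnsB-tnsC. After plating with 0.1 mM IPTG at 37°C for 18 h, input plasmids and genomic integration junctions were PCR-amplified and Illumina-sequenced across two biological output replicates, with four reference barcodes. Relative integration efficiency is the normalised, log-transformed output/input barcode fold change.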

[2] = test system: VchCAST RNA-guided transposition machinery (E. coli BL21(DE3) host, lacZ target); experiment: relative integration efficiency (T-LR orientation) vs wild-type transposon end (log2 (normalized fold change)); transposon end mutated: right end (5 bp flank + 75 bp right end); higher = more efficient transposition
Procedure, shortened: as §1

Sequence | relative integration efficiency (log2) [1] | relative integration efficiency (log2) [2]
ACATTTGTTGATACAACCATAACATGATAATTACACCCATAACTTGATAATTATCACACCCATAACTTGATATTGCCTCTGATCATAGTCAGACCAACATTGCTACGACCCGTATTCGCACCGACAC | -0.3313 ± 0.00055 | -0.127 ± 0.35
ACATTTGTTGATACAACCATAACCGTATAATTACACCCATAAATTGATAATTATCACACCCATAAATTGATATTGCCTCTGATCATAGTCAGACCAACATTGCTACGACCCGTATTCGCACCGACAC | -1.41 ± 0.21 | -1.78 ± 0.49
ACATTTGTTGATACAACCATAACCGTCGCCGGCACAAACGCCCGGTCGCCGGCGACACAAACGCCCGGTCGCGGTAAGAGGATCATAGTCAGACCAACATTGCTACGACCCGTATTCGCACCGACAC | -7.77 ± 0.98 | -6.09 ± 0.56
ACATTTGTTGATACAACCATAACCTGATAATTACACCCATAAATTGATAATTATCACACCCATAAATTGATATTGCCTCTGATCATAGTCAGACCAACATTGCTACGACCCGTATTCGCACCGACAC | -0.321 ± 0.01 | -0.337 ± 0.089
ACATTTGTTGATACAACCATAACCTGATAATTACACCCATAACGTGATAATTATCACACCCATAACGTGATATTGCCTCTGATCATAGTCAGACCAACATTGCTACGACCCGTATTCGCACCGACAC | -0.513 ± 0.02 | -0.339 ± 0.3
ACATTTGTTGATACAACCATAAGTTGATATTTTCAACCATAAAATGATAATTATCACAACCATAAAATGATAATTACTCTGATCATAGTCAGACCAACATTGCTACGACCCGTATTCGCACCGACAC | -0.00738 ± 0.052 | -0.774 ± 0.049
ACATTTGTTGATACAACCATAAGTTGATATTTTCAACCATAAAATGATAATTATCACAACCATAAAGTGATATTTACTCTGATCATAGTCAGACCAACATTGCTACGACCCGTATTCGCACCGACAC | 0.0134 ± 0.036 | -0.26 ± 0.094
ACATTTGTTGATACAACCATAAGTTGATATTTTCAACCATAAAATGATAATTATCACAACCATAAGTTGATATTTTCTCTGATCATAGTCAGACCAACATTGCTACGACCCGTATTCGCACCGACAC | -0.233 ± 0.067 | -0.119 ± 0.45
ACATTTGTTGATACAACCATAAGTTGATATTTTCAACCATAAAATGATAATTATCACAACCATATATTGATATCTCCTCTGATCATAGTCAGACCAACATTGCTACGACCCGTATTCGCACCGACAC | -0.078 ± 0.041 | 0.0384 ± 0.016
ACATTTGTTGATACAACCATAAGTTGATATTTTCAACCATAAAATGATAATTATCACACCCATAAATTGATAATTACTCTGATCATAGTCAGACCAACATTGCTACGACCCGTATTCGCACCGACAC | -0.162 ± 0.0022 | -0.376 ± 0.15
ACATTTGTTGATACAACCATAAGTTGATATTTTCAACCATAAAATGATAATTATCACACCCATAAATTGATATTGCCTCTGATCATAGTCAGACCAACATTGCTACGACCCGTATTCGCACCGACAC | 0.367 ± 0.094 | 0.105 ± 0.58
ACATTTGTTGATACAACCATAAGTTGATATTTTCAACCATAAAATGATAATTATCAGTGGGTATTTAACTATAACGCTCTGATCATAGTCAGACCAACATTGCTACGACCCGTATTCGCACCGACAC | -0.962 ± 0.12 | 2.48 ± 0.2
ACATTTGTTGATACAACCATAAGTTGATATTTTCAACCATAAAGTGATATTTATCACAACCATAAAATGATAATTACTCTGATCATAGTCAGACCAACATTGCTACGACCCGTATTCGCACCGACAC | -0.0697 ± 0.03 | -0.435 ± 0.24
ACATTTGTTGATACAACCATAAGTTGATATTTTCAACCATAAAGTGATATTTATCACAACCATAAAGTGATATTTACTCTGATCATAGTCAGACCAACATTGCTACGACCCGTATTCGCACCGACAC | 0.0778 ± 0.073 | -0.067 ± 0.078
ACATTTGTTGATACAACCATAAGTTGATATTTTCAACCATAAAGTGATATTTATCACAACCATAAGTTGATATTTTCTCTGATCATAGTCAGACCAACATTGCTACGACCCGTATTCGCACCGACAC | 0.119 ± 0.067 | -0.246 ± 0.14
ACATTTGTTGATACAACCATAAGTTGATATTTTCAACCATAAAGTGATATTTATCACAACCATATATTGATATCTCCTCTGATCATAGTCAGACCAACATTGCTACGACCCGTATTCGCACCGACAC | -0.136 ± 0.014 | -0.347 ± 0.053
ACATTTGTTGATACAACCATAAGTTGATATTTTCAACCATAAAGTGATATTTATCACACCCATAAATTGATAATTACTCTGATCATAGTCAGACCAACATTGCTACGACCCGTATTCGCACCGACAC | -0.109 ± 0.07 | -0.0467 ± 0.44
